# In patent US20040081659A1 (MERCK, published 2004):
# Molecular target: free prostate specific antigen (PSA) (human, UniProt P07288 25-261)
# Experiment: cell-based or functional assay
row,Time to 50% Substrate Cleavage by York PSA (Min); cell gives percent cleaved at 1 hour [% cleaved at 1 hour],Binder
1,34,"XSSXQSSP (N-terminal acetyl; 4-trans-L-hydroxyproline at 1; Chg at 4; D-Pro at 8, esterified to the 4-O of des-acetylvinblastine) [4-O-(Ac-4-trans-L-HypSSChgQSS-(d)-Pro)-(dAc)-VIN]"
2,4,"XXQSSX (N-terminal hydroxyacetyl ((2-OH)Ac); Chg at 2; sarcosine at 6, esterified to the 4-O of des-acetylvinblastine) [4-O-[(2-OH)Ac-SChgQSS-Sar]-dAc-VIN]"
3,12,XSSXQSXX (N-terminal acetyl; 4-trans-L-hydroxyproline at 1 and 8; Chg at 4; D-Ser at 7; C-terminus esterified to the 4-O of des-acetylvinblastine) [4-O-(Ac-4-trans-L-HypSSChgQ-S(dS)-4-trans-L-Hyp)-dAc-VIN]
